Data taken from patent publication US9493781B2, “Synthetic brassica-derived chloroplast transit peptides” (DOW AGROSCIENCES LLC, priority 2012, dated 2016).

Assays:
Arabidopsis [1] = experiment: dgt-28, dgt-32, dgt-33, dgt-3, dgt-7 transformed Arabidopsis (T1, T2, T3) response to postemergence glyphosate, % visual injury; type: in vivo, Arabidopsis thaliana; settings: 14 days after application
Text: Transgenic T1 Arabidopsis plants containing the dgt-28 transgene were sprayed with differing rates of glyphosate. Elevated rates were applied in this study to determine the relative levels of resistance (105, 420, 1,680 or 3,360 g ae/ha). A typical 1× usage rate of glyphosate that will control non-transformed Arabidopsis is 420 g ae/ha. […] The T1 Arabidopsis plants that were used in this study were variable copy number for the dgt-28 transgene. The low copy dgt-28 T1 Arabidopsis plants were self-pollinated and used to produce T2 plants.
Results of Glyphosate Selection of Transformed dgt-28 Arabidopsis Plants. The Arabidopsis T1 transformants were first selected from the background of untransformed seed using a glufosinate selection scheme. Three flats or 30,000 seed were analyzed for each T1 construct. The T1 plants selected above were molecularly characterized and representative plants with variable copy number were subsequently transplanted to individual pots and sprayed with various rates of commercial glyphosate as previously described. The response of these plants is presented in terms of % visual injury 2 weeks after treatment (WAT). […] An arithmetic mean and standard deviation is presented for each construct used for Arabidopsis transformation. The range in individual response is also indicated in the last column for each rate and transformation. Wild-type, non-transformed Arabidopsis (c.v. Columbia) served as a glyphosate sensitive control.
T2Arabidopsis Data. The second generation plants (T2) of selected T1 Arabidopsis events which contained low copy numbers of the dgt-28 transgene were further characterized for glyphosate tolerance. Glyphosate was applied as described previously. The response of the plants is presented in terms of % visual injury 2 weeks after treatment (WAT). […] An arithmetic mean and standard deviation are presented for each construct used for Arabidopsis transformation. The range in individual response is also indicated in the last column for each rate and transformation. Wild-type, non-transformed Arabidopsis (cv. Columbia) served as a glyphosate sensitive control. In the T2 generation hemizygous and homozygous plants were available for testing for each event and therefore were included for each rate of glyphosate tested. Hemizygous plants contain two different alleles at a locus as compared to homozygous plants which contain the same two alleles at a locus. Variability of response to glyphosate is expected in the T2 generation as a result of the difference in gene dosage for hemizygous as compared to homozygous plants. The variability in response to glyphosate is reflected in the standard deviation and range of response.
T3 Arabidopsis Data. The third generation plants (T3) of selected T2 Arabidopsis events which contained low copy numbers of the dgt-28 transgene were further characterized for glyphosate tolerance. […] Glyphosate was applied as described previously. The response of the plants is presented in terms of % visual injury 2 weeks after treatment (WAT). […] An arithmetic mean and standard deviation are presented for each construct used for Arabidopsis transformation. The range in individual response is also indicated in the last column for each rate and transformation. Wild-type, non-transformed Arabidopsis (cv. Columbia) served as a glyphosate-sensitive control.

Arabidopsis [2] = experiment: Heritability progeny test of T1 families (T2 plants) with glufosinate, Arabidopsis; type: in vivo, Arabidopsis thaliana; settings: progeny test of 100 T2 plants, glufosinate 200 g ae/ha
Text: Heritability. Confirmed transgenic T1 Arabidopsis events were self-pollinated to produce T2 seed. These seed were progeny tested by applying Ignite™ herbicide containing glufosinate (200 g ae/ha) to 100 random T2 siblings. […] The T1 families (T2 plants) segregated in the anticipated 3 Resistant: 1 Sensitive model for a dominantly inherited single locus with Mendelian inheritance as determined by Chi square analysis (P>0.05). […] Seed were collected from 5 to 15 T2 individuals (T3 seed). Twenty-five T3 siblings from each of 3-4 randomly-selected T2 families were progeny tested as previously described.

[3] = Table 8, T1 Arabidopsis, 105 g ae/ha glyphosate
[4] = Table 8, T1 Arabidopsis, 420 g ae/ha glyphosate
[5] = Table 8, T1 Arabidopsis, 1680 g ae/ha glyphosate
[6] = Table 8, T1 Arabidopsis, 3360 g ae/ha glyphosate
[7] = Table 10, T1 Arabidopsis, 1,680 g ae/ha glyphosate
[8] = Table 12, T2 Arabidopsis, 1 copy, 420 g ae/ha glyphosate
[9] = Table 12, T2 Arabidopsis, 1 copy, 840 g ae/ha glyphosate
[10] = Table 12, T2 Arabidopsis, 1 copy, 1680 g ae/ha glyphosate
[11] = Table 12, T2 Arabidopsis, 1 copy, 3360 g ae/ha glyphosate

B1: pDAB105531: TraP8 v2 -- dgt-28 v5: binary construct TraP8 v2: dgt-28 v5 (SEQ ID NO:34) (nucleic acid)
DNA: ATGGCTCAATCTAGCAGAATCTGCCACGGTGTGCAGAACCCATGTGTGATCATTTCCAATCTCTCCAAATCCAACCAGAACAAATCTCCTTTCTCAGTCAGCCTCAAGACTCACCAGCAGCAGCGTCGTGCTTACCAGATATCTAGCTGGGGATTGAAGAAGTCAAACAACGGGTCCGTGATTCGTCCGGTTAAGGCAGCAAGAGGGATGCCAGCCTTGTCTTTACCTGGATCAAAGAGTATCACAGCTAGGGCACTCTTTCTTGCTGCTGCTGCTGATGGGGTTACTACTTTGGTGAGGCCATTGAGAAGTGACGACACAGAAGGATTCGCTGAGGGGTTAGTTCGTTTAGGCTATCGTGTAGGGAGGACACCCGATACTTGGCAAGTCGATGGCAGACCACAAGGACCAGCAGTGGCTGAGGCTGACGTCTACTGTAGAGACGGAGCAACCACCGCTAGATTCTTGCCAACCTTAGCAGCTGCTGGTCACGGAACATACAGATTTGATGCTTCACCACAGATGAGGAGACGTCCTCTTTTGCCCTTAAGCAGAGCCTTGAGGGATTTGGGTGTCGATCTTAGACACGAAGAAGCTGAAGGTCATCACCCTCTGACTGTCCGTGCTGCTGGGGTTGAAGGAGGAGAGGTTACTTTGGATGCTGGTCAGTCAAGTCAGTATCTCACTGCCTTGTTGCTCCTTGGTCCCCTTACAAGACAAGGACTGAGGATAAGGGTTACTGATTTGGTGTCAGCACCATACGTGGAGATTACGCTTGCAATGATGAGGGCTTTCGGAGTTGAAGTGGCAAGGGAGGGAGATGTGTTCGTTGTTCCACCTGGTGGATATCGTGCAACTACGTATGCTATAGAACCCGACGCAAGTACTGCTTCTTACTTCTTCGCAGCTGCTGCTTTGACTCCTGGAGCTGAAGTGACTGTACCTGGGTTAGGCACGGGAGCACTTCAAGGAGATTTGGGATTTGTAGATGTCTTAAGGAGAATGGGAGCCGAGGTGTCCGTAGGAGCTGATGCAACCACTGTTAGAGGAACTGGTGAATTGCGTGGCCTTACAGCCAACATGAGAGACATAAGTGATACGATGCCGACCCTCGCTGCAATAGCACCCTTTGCTAGTGCTCCAGTTAGAATCGAGGATGTTGCCAACACTCGTGTCAAAGAATGTGACAGACTTGAGGCTTGTGCAGAGAACCTTAGGAGGTTGGGAGTAAGGGTTGCAACGGGTCCGGACTGGATTGAGATACACCCTGGTCCAGCTACTGGTGCTCAAGTCACAAGCTATGGTGATCACAGAATTGTGATGTCATTTGCAGTGACTGGACTTCGTGTGCCTGGGATCAGCTTCGACGACCCTGGCTGTGTTCGTAAGACTTTTCCTGGGTTTCACGAGGCTTTCGCAGAATTGAGGCGTGGCATTGGGAGCTGA
modifications: In-frame fusion of dgt-28 v5 and TraP8 v2
Arabidopsis [1]; [3]
  % Injury Ave: 10.8%
  % Injury Range (%): 0-25%
  No. plants with 20-40% injury: 1
  No. plants with <20% injury: 3
  No. plants with >40% injury: 0
Arabidopsis [1]; [4]
  % Injury Ave: 22.8%
  % Injury Range (%): 8-50%
  No. plants with 20-40% injury: 0
  No. plants with <20% injury: 3
  No. plants with >40% injury: 1
Arabidopsis [1]; [5]
  % Injury Ave: 5.3%
  % Injury Range (%): 0-8%
  No. plants with 20-40% injury: 0
  No. plants with <20% injury: 4
  No. plants with >40% injury: 0
Arabidopsis [1]; [6]
  % Injury Ave: 29.3%
  % Injury Range (%): 22-35%
  No. plants with 20-40% injury: 4
  No. plants with <20% injury: 0
  No. plants with >40% injury: 0
Arabidopsis [1]; [7]
  % Injury Ave: 5.3%
  % Injury Range (%): 0-8%
  No. plants with 20-40% injury: 0
  No. plants with <20% injury: 4
  No. plants with >40% injury: 0
Arabidopsis [1]; [8]
  % Injury Ave: 0.5%
  % Injury Range (%): 0-2%
  No. plants with 20-40% injury: 0
  No. plants with <20% injury: 4
  No. plants with >40% injury: 0
Arabidopsis [1]; [9]
  % Injury Ave: 1.3%
  % Injury Range (%): 0-5%
  No. plants with 20-40% injury: 0
  No. plants with <20% injury: 4
  No. plants with >40% injury: 0
Arabidopsis [1]; [10]
  % Injury Ave: 7.5%
  % Injury Range (%): 5-15%
  No. plants with 20-40% injury: 0
  No. plants with <20% injury: 4
  No. plants with >40% injury: 0
Arabidopsis [1]; [11]
  % Injury Ave: 7.5%
  % Injury Range (%): 0-15%
  No. plants with 20-40% injury: 0
  No. plants with <20% injury: 4
  No. plants with >40% injury: 0
Arabidopsis [2]
  T1 Families Tested Segregating at 1 Locus (%): 100%
